Drawing on paper doi:10.1101/2024.09.03.610704, this text covers stoichiometry N (cyt. c per complex III dimer) and stoichiometry N (cyt. c per complex IV monomer) for one substance.

In test [1] the target is mitochondrial respiratory complex III dimer (Chlamydomonas reinhardtii). The test is described as follows: cryo-EM structure.
The target in test [2] is mitochondrial respiratory complex IV monomer (Chlamydomonas reinhardtii). The test is described as follows: cryo-EM structure.

On to “cytochrome c (from UniProt P15451 1-112) (natural protein)”, for which the stoichiometry N (cyt. c per complex III dimer) in test [1] was 2. Moreover, the stoichiometry N (cyt. c per complex IV monomer) in test [2] turned out to be 1.
